Results published in US20100015126A1, “Methods of Binding of Cross-Beta Structures By Chaperones” (priority 2006, published 2010).

Target: T1, human BiP (Homo sapiens, UniProt P11021)
T1 construct: The human BiP gene except the signal peptide encoding region was obtained from Geneart (Germany); linker […]; made in house; host or cells: HEK 293E cells, transient transfection, PABC674 vector; secreted into the medium
Assay: Competition ELISA: BiP binding to misfolded proteins under influence of crossbeta binding compounds
Conditions: fixed sub-optimal BiP concentration
Experimental: Binding of chaperones to immobilized (misfolded) protein ligands was determined using an enzyme linked immuno sorbent assay (ELISA) approach. For this purpose 50 μl/well of potential ligands at indicated concentrations or coat buffer only for control and background measurement purposes, were coated overnight at 4° C. or coated for 1 h at room temperature, with motion, in 50 mM NaHCO3 pH 9.6 (coat buffer). In general, ligands were coated at 5 μg/ml, unless stated otherwise. For example, BiP binding peptides 6BB# and oxLDL were coated at 50 μg/ml. Native haemoglobin (Sigma-Aldrich, H7379), albumin, IgIV Gammagard and ovalbumin controls were prepared from lyophilized stocks. The controls were prepared by dissolving lyophilized proteins at 1 mg/ml in PBS upon resuspending by pipetting, followed by a 30 minutes period at the roller device, at room temperature. The protein solutions were centrifuged for 10 minutes at 16,000*g and diluted in coat buffer. After coating the plates were washed at least three times with 50 mM Tris-HCl pH 7.3, 150 mM NaCl, 0.1% v/v Tween20, and blocked with Blocking reagent (Roche Diagnostics, Almere, The Netherlands; 11112589001), for 1 h at room temperature, with motion. Plates were washed three times and incubated in triplicate with indicated chaperone dilution series, at 50 μl/well, for 1 h at room temperature, with constant motion. For HSP90, 5 mM DTT is incorporated in the binding buffer (PBS/0.1% Tween20) to avoid unwanted disulfide bond formation of the HSP90. […] After four wash cycles, secondary antibodies were added to the wells when required, 50 μl/well, for 45′ at room temperature, with motion. RAMPO and SWARPO were used at 3000 times dilution. […] In a second experiment with more immobilized misfolded proteins and controls, the detection of bound HSP90 with the mix of two anti-HSP90 antibodies was achieved by mixing 1:1500 SWARPO with 1:3000 RAMPO. After 5 washes with wash buffer followed by two washes with PBS, binding of antibodies was assessed. […] Plates were read at 450 nm. Triplicates were averaged and standard deviations calculated. […] Subsequently, sub-optimal concentrations of chaperones for binding to misfolded protein ligands are determined, and these concentrations are used for inhibition studies.
In a subsequent study we analysed whether BiP interacts directly with the crossbeta structure, by performing ELISA binding studies with a fixed sub-optimal concentration of BiP and concentration series of crossbeta binding compounds. […]

T1 sequence (P11021 19-654): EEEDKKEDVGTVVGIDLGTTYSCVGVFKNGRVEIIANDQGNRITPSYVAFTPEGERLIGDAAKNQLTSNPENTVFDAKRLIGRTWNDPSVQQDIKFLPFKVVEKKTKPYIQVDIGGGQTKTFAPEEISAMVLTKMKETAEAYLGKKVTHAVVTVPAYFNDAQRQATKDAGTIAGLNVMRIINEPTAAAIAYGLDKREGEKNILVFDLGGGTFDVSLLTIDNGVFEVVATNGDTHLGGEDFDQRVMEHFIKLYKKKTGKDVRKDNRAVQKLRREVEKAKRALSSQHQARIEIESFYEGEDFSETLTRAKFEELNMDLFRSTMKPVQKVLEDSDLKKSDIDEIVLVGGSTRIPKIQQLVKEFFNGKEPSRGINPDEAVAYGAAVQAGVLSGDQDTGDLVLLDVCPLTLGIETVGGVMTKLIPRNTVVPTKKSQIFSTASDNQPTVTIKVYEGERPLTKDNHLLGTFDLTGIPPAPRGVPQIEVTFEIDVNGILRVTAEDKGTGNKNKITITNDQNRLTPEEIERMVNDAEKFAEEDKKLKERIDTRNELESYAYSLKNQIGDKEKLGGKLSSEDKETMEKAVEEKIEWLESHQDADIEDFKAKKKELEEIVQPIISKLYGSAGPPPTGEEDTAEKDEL

Influence of K2P tPA on interaction of BiP with misfolded protein (10 mM ε-amino caproic acid): −
B1: dOVA standard: heat-denatured chicken ovalbumin (protein)
chain: GSIGAASMEFCFDVFKELKVHHANENIFYCPIAIMSALAMVYLGAKDSTRTQINKVVRFDKLPGFGDSIEAQCGTSVNVHSSLRDILNQITKPNDVYSFSLASRLYAEERYPILPEYLQCVKELYRGGLEPINFQTAADQARELINSWVESQTNGIIRNVLQPSSVDSQTAMVLVNAIVFKGLWEKAFKDEDTQAMPFRVTEQESKPVQMMYQIGLFRVASMASEKMKILELPFASGTMSMLVLLPDEVSGLEQLESIINFEKLTEWTSSNVMEERKIKVYLPRMKMEEKYNLTSVLMAMGITDVFSSSANLSGISSAESLKISQAVHAAHAEINEAGREVVGSAEAGVDAASVSEEFRADHPFLFCIKHIATNAVLFFGRCVSP
Influence of tPA on interaction of BiP with misfolded protein (10 mM ε-amino caproic acid): ↓ (a ↓ sign refers to inhibited abolished binding of BiP)
Influence of Congo red on interaction of BiP with misfolded protein (concentration series of Congo red): ↓ (a ↓ sign refers to inhibited abolished binding of BiP)
Influence of ThS on interaction of BiP with misfolded protein (concentration series of ThS): ↓ (a ↓ sign refers to inhibited abolished binding of BiP)
